Ends that are not written are not given here.

The results in this text go back to patent US8647828B2, “Intracellular targeting of molecules via syndecan-4” (Szilak Laboratories Bioinformatics & Molecule-Design Ltd., priority 2007, dated 2014).

Assay [1] deals with T1, syndecan-4 (Homo sapiens, UniProt P31431).
T1 construct: comprising the full, human syndecan-4 cDNA driven by cytomegalovirus (CMV) promoter; expressed in transfected cells; host or cells: HT1080 fibrosarcoma, MCF7 adenocarcinoma
T1 sequence (P31431 19-198): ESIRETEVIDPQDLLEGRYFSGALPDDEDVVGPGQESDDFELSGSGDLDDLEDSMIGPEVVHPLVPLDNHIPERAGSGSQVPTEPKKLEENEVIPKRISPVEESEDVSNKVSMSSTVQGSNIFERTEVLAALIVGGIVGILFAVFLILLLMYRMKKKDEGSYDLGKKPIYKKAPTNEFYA
The assay can be described thus: Syndecan-4 mediated internalization and nuclear targeting of FITC labeled basic peptides (immunofluorescent microscopy). It counts as cell-based. The settings on record: 10 μM FITC labeled peptide. An excerpt: Green fluorescent protein (GFP, Clontech; Palo Alto, Calif., USA) labeled fusion proteins were used to follow the process of the endocytosis of syndecan-4 in vivo. GFP was inserted into the syndecan-4 extracellular region in the HuSynd4 pCMV construct, comprising the full, human syndecan-4 cDNA driven by cytomegalovirus (CMV) promoter by using techniques well-known by the person skilled in the art. To avoid possible artifacts, every experiment was repeated with all of the constructs; HuSynd4 pCMV and the GFP chimeras. To reveal the role and the importance of phosphorylation stage of Ser179, mutations were introduced into the cytoplasmic tail region of syndecan-4-GFP chimeras. […]
Syndecan-4 is able to carry the agents bound on the cell surface into the cell. […] The cells were permeabilized with 0.1% triton X-100 (Sigma, St. Louis, Mo., USA) in PBS, and syndecan-4 was visualized with anti-syndecan-4 ectodomain serum (Zymed, San Francisco, Calif., USA), monitored by immunofluorescent microscopy. […] The labeled molecules were detected in distinct compartments of cytoplasm, which indicate that the syndecan-4 was able to internalize and traffic the attached agents, like antibodies, and basic peptides along, holding the specifically bound agents intact throughout the whole process. […]

Assay [2] deals with syndecan-4. Kind of assay: FGF2 stimulated syndecan-4 endocytosis, time-lapse confocal microscopy. It counts as cell-based, human. The settings on record: HT1080, 22° C., 0, 10 and 60 minutes.

On to “KRKRKR (also: FITC label) [6 amino acid basic oligopeptide, fluorescently (FITC) labeled]”, for which the “nuclear accumulation of labeled oligopeptide, colocalized with syndecan-4” value with syndecan-4 [1] is “accumulated in the nucleus”. The “triggering of syndecan-4 endocytosis and penetration into the cell” value with syndecan-4 [1] (incubated for an hour) is “able to trigger the endocytosis, and penetrate”.

“FGF2: basic fibroblast growth factor, stimulator of syndecan-4 endocytosis”: the syndecan-4 endocytosis result in the assay with syndecan-4 [2] is recorded as “stimulated”.
